Measurements: paper PMC11577821

Assays:
purified protein [1] = substrate: O=C(CCc1ccc(O)cc1)c1c(O)cc(O)cc1O; assay: purified protein; conditions: UDP-Glc as sugar donor; C-glucosylation
purified protein [2] = substrate: O=C1CC(O)(c2ccc(O)cc2)Oc2cc(O)cc(O)c21; assay: purified protein; conditions: UDP-Glc as sugar donor; C-glucosylation

B1: UGT708S6 (Dendrobium catenatum) (protein)
chain: MSSGDTNLPRVLLLPSSGMGHLVPFVRLASALSERCISVSLLAVRPTISAAESLLLSSLPSSLLLDFPIKPLDPSLFPPSSDPFFLQMEALRRSADLLPSFISTCSPPVSSLIIDISIASSFLPVAAAAKIPCFVLFTSSASMLALCSVFAFLSTPTAGADVNIAGGVLKIPTSSLPPPLRDPNHLFTTQFVENGRALAQANGILVNTFSALEPEVLVALNSGAVLPGLPPVIAIGPLPPVKKQPSLPSPALRWLDEQQEKSVMYVSFGSRTAMSKEQIRALGAGLENSGCRFFWVVKSAKVDREEVMEIEELLGEEYAKRVEERGLVVKEWVEQEVVLSHRAVAGFMSHCGWNSVTEAAAAGVRILAWPRMGDQRVNAAVVARSGLGIWPEKWAWEAEERVVAAEEIAVKVREMMRDERLAETAAQVQAEATAAVQEGGSLDQSCGYLLKKL
Work on B1 yielded a Km (purified protein [1]) of 545.831 µM, a Vmax (purified protein [1]) of 9.48 µM/min and a kcat (purified protein [1]) of 0.563 s⁻¹. The kcat/Km (purified protein [1]) was 1030 M⁻¹ s⁻¹, the Km (purified protein [2]) was 276.900 µM and the Vmax (purified protein [2]) was 7.68 µM/min. It also gave a kcat (purified protein [2]) of 0.907 s⁻¹ and a kcat/Km (purified protein [2]) of 3280 M⁻¹ s⁻¹.
